Data taken from US20050095257A1.

Biological target: murine CCR6 expressed on HEK293 cells (HEK293/CCR6) (murine) (UniProt O54689)
Assay: cell-based or functional assay

Substance: mDF2βsFv38, murine β-defensin 2 fusion with sFv38 (from UniProt P82020 21-71)
- chemotaxis of murine bone marrow derived immature DC, peak activity: 10 ng/mL

Substance: mDF3βsFv38, murine β-defensin 3 fusion with sFv38 (from UniProt Q9WTL0 23-63)
- chemotaxis of murine bone marrow derived immature DC, peak activity: 100 ng/mL
